Measurements: patent US12473545B2, “Regulation of RAN translation by PKR and eIF2α-P pathways” (University of Florida Research Foundation, Incorporated, priority 2017, dated 2025)
Entries after “also recorded” stand apart in the source; their conditions may differ.

Tests used:
PKR = target: T1, PKR (Homo sapiens, UniProt P19525); assay: Protein blot of phospho-PKR (T446 and T451) in HEK293T cells transfected with repeat expansion constructs; type: cell-based; details: for G4C2 repeat-expansion induced p-PKR levels: HEK293T, G4C2 expansion construct, dose series
T1 construct: endogenous in cells; host or cells: HEK293T
T1 sequence (P19525 whole entry): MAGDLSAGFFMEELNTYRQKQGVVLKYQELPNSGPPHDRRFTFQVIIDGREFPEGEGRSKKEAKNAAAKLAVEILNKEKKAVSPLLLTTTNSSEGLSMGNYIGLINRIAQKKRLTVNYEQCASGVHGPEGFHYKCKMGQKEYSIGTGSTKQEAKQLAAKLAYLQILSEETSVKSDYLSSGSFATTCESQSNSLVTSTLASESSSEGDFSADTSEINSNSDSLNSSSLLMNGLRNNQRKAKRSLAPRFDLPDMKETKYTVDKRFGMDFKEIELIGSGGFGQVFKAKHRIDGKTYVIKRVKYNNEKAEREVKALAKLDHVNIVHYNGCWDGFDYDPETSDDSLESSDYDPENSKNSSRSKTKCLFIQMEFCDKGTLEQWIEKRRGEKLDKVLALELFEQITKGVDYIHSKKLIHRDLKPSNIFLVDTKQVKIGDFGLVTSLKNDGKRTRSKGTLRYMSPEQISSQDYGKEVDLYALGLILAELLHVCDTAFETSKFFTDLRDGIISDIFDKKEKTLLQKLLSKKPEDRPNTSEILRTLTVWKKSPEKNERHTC
Description: (§1) HEK293T cells were cultured in DMEM medium supplemented with 10% fetal bovine serum and incubated at 37° C. in a humid atmosphere containing 5% CO2. DNA transfections were performed using Lipofectamine 2000 Reagent (Invitrogen) according to the manufacturer's instructions.
(§2) Transfected cells in each well of a six-well tissue-culture plate were rinsed with PBS and lysed in 300 μL RIPA buffer with protease inhibitor cocktail for 45 min on ice. DNA was sheared by passage through a 21-gauge needle. The cell lysates were centrifuged at 16,000×g for 15 min at 4° C., and the supernatant was collected. The protein concentration of the cell lysate was determined using the protein assay dye reagent (Bio-Rad). Twenty micrograms of protein were separated in a 4-12% NuPAGE Bis-Tris gel (Invitrogen) and transferred to a nitrocellulose membrane (Amersham). The membrane was blocked in 5% dry milk in PBS containing 0.05% Tween-20 (PBS-T) and probed with the anti-Flag (1:2000), anti-Myc (1:1000), anti-HA (1:1000), or rabbit polyclonal antibodies (1:1000) in blocking solution. After the membrane was incubated with anti-rabbit or anti-mouse HRP-conjugated secondary antibody (Amersham), bands were visualized by the ECL plus Western Blotting Detection System (Amersham).
Therefore, the ability of other RAN positive repeat expansions to activate PKR and the role of PKR on RAN translation were tested.
[…]. Transient transfections of expansion constructs treated with or without metformin were performed. […].

RAN translation = assay: Immunoblot of RAN protein levels in HEK293T cells transfected with repeat expansion constructs; type: cell-based; details: for RAN polyGP levels: HEK293T transiently transfected with G4C2 expansion construct, dose series; for polyLPAC RAN protein levels: CCTG (CCUG) expansion construct; for polyGP RAN protein levels: GGGGCC (G4C2) expansion construct
Description: Diagrams of CAG, CCTG and GGGCC repeat expansion constructs used to test effects of protein kinase R (PKR) on repeat associated non-ATG (RAN) translation are shown in FIG. 1A. Briefly, constructs have a 6× stop-codon cassette (e.g., two stops in each reading frame, upstream of the repeat expansions and C-terminal epitope tags). A diagram of PKR vectors expressing wildtype (PKR-WT), the dominant negative K296R mutant form of PKR (PKR-K296R), or the C-terminal only domain (PKR-CT) are shown in FIG. 1B.
(§3) HEK293T cells were transfected with RAN protein-expressing and PKR-expressing constructs.
as §1, §2
Next, the effects of PKR overexpression and inhibition on RAN protein accumulation across several types of repeat expansions were tested. […] For CAGEXP expressing cells, PKR-WT overexpression led to increased p-PKR and p-eIF2α, and increased RAN polyAla protein levels. In contrast, expression of the dominant-negative PKR-K296R mutation decreased polyAla RAN protein levels. […] The polyGln reading frame, which contains an AUG initiation codon, is not affected by PKR (FIG. 7A).
. […] Protein blots were run on protein lysates from HEK293T cells transfected with various repeat expansion constructs shown in FIG. 13A. In FIG. 13B, the lanes labeled KMQ, show: RAN poly-Ser-Flag, RAN poly-Ala-HA, ATG initiated polyGln-Myc. In FIG. 13B the lanes labeled KMQ has a methionine encoding ATG immediately 5′ to the CAG repeat expansion and located within the polyGln reading frame. The lanes labeled KKQ indicate the KKQ vector contains a CAG expansion without an AUG initiation codon, and indicates: RAN polySer-Flag, RAN polyAla-HA, RAN polyGln-Myc. These constructs contain epitope tags that are incorporated into the C-terminal regions of the ATG-initiated poly-Gln and non-ATG initiated RAN proteins (poly-Gln, poly-Leu-Pro-Ala-Cys and poly-Gly-Pro) which are expressed across these repeat expansions. The lane labeled CCTG expresses the following RAN proteins: RAN polyLPAC-Flag, RAN polyLPAC-HA, RAN polyLPAC-Myc. The lane labeled G4C2 is designed to detect the following RAN proteins: RAN polyGP-Flag, RAN polyGR-HA, RAN polyGA-Myc. […]

[1] = tested on: glycine-proline (GP) RAN protein; assay: GP RAN protein levels in peripheral blood leukocytes of a C9ORF72 expansion-positive human subject; type: in vivo; details: single human subject; 500 or 1000 mg/day Metformin Hydrochloride Extended Release Tablets; 10 to 30 days; vs pretreatment
Description: […]. […] […].

eIF2α = assay: Immunoblot of phosphorylated eIF2α in transfected HEK293T cells; type: cell-based; details: HEK293T co-transfected with repeat expansion constructs
Description: as §3, §1
as §2, with “System (Amersham). […]” for “System (Amersham).”

C9-500 BAC mice = assay: ICV injection of AAV expressing PKR-K296R in C9-500 BAC transgenic mice; type: in vivo; details: for GA RAN protein aggregates in the retrosplenial cortex (IHC): analysis at 3 months; for open field center time: vs C9 EGFP control animals
Description: Schematic diagrams of AAV2/9 constructs used for rAAV injections into a BAC transgenic mouse model of C9orf72 ALS/FTD containing 500 G4C2 repeats (C9-500 BAC) are shown in FIG. 3A. Briefly, animals were sacrificed for analysis at 3 months of age after […] intracerebral ventricular (ICV) injections with AAV2/9 virus expressing either EGFP or the dominant negative form of PKR(K296R).
Representative immunohistochemical (IHC) staining of GA RAN protein aggregates in sections of the retrosplenial cortex from C9-500 BAC mice (FIG. 3B, left). Quantification of GA RAN protein aggregates was also performed (FIG. 3B, right). Analysis was done in a blinded fashion.
AAV vectors expressing the PKR under the control of the cytomegalovirus enhance/chicken beta actin (CBA) promoter, a woodchuck hepatitis virus post-transcriptional-regulatory element (WPRE), and the bovine growth hormone polyA were generated by Polyethylenimine Linear (PEI, Polysciences) transfection into HEK293T cells. Cells were co-transfected with AAV helper plasmids pDP8.ape to produce recombinant adeno-associated viral (rAAV) vector rAAV2/8.
Neonatal pups were injected within 0-12 hours after birth. The naive pups were covered in aluminum foil and completely surrounded in ice for 3-4 minutes, resulting in the body temperature being lowered to <10° C. The pups were considered completely cryoanesthetized when all movement stops and the skin color changes from pink to purple. 2 μl of virus ([…]) was slowly injected into the ventricle using 10 μl syringes (30 degree beveled). After injection pups were allowed to completely recover on a warming blanket and then returned to the home cage.
rAAV-mediated delivery of dominant negative PKR-K296R, or EGFP as a control, was performed using intracerebroventricular (ICV) injections at P0 in C9orf72 ALS/FTD BAC transgenic mice (C9-BAC) and non-transgenic (NT) littermate controls. A schematic depiction of each construct is described in FIG. 10A. Four groups of animals (EGFP/C9, EGFP/NT, PKR-K296R/C9 and PKR-K296R/NT) were aged to 3 months. […] Similarly, soluble GP levels, detected by meso-scale detection (MSD) assays, were reduced in brain lysates from C9 PKR-K296R treated animals compared to C9 EGFP controls.

[2] = HEK293T, CAG expansion construct

With `[H]/N=C(/N)N/C(=N/[H])NCCc1ccccc1` [phenformin, reference compound] the “G4C2 repeat-expansion induced p-PKR levels” value (PKR) was “dose-dependent inhibition” and the “RAN polyGP levels” value (RAN translation) was “dose-dependent inhibition”.

For `CCCCNC(=N)NC(=N)N` [buformin, reference compound], the “G4C2 repeat-expansion induced p-PKR levels” value (PKR) was “dose-dependent inhibition” and the “RAN polyGP levels” value (RAN translation) was “dose-dependent inhibition”.

With `O=C(COc1ccc(Cl)cc1)NC1CCC(NC(=O)COc2ccc(Cl)cc2)CC1` (stereo not drawn) [ISRIB, reference compound] the “polyAla RAN protein levels” value (RAN translation; HEK293T transfected with expanded CAG and PKR-WT constructs) was “reduces” and the “polyAla RAN protein levels” value (RAN translation; HEK293T transfected with expanded CAG and PKR-WT constructs, listed as ISIRB) was “decrease”.

`CN(C)C(=N)NC(=N)N` [metformin, reference compound] was tested, and the “PKR phosphorylation at T446 and T451” value (PKR; HEK293T transiently transfected with expansion constructs, with or without metformin) was “decreases”, the “G4C2 repeat-expansion induced p-PKR levels” value (PKR) was “dose-dependent inhibition” and the RAN protein levels (RAN translation; HEK293T cells expressing CAG, CCUG or G4C2 expansion RNAs, protein blot) was “decreases”. For the same molecule, the “RAN polyGP levels” value (RAN translation) was “dose-dependent inhibition”, the “polyAla RAN protein levels” value (RAN translation; [2]) was “reduced RAN protein levels” and the “polyLPAC RAN protein levels” value (RAN translation; HEK293T) was “reduced RAN protein levels”. For the same molecule, the “polyGP RAN protein levels” value (RAN translation; HEK293T) was “reduced RAN protein levels” and the “glycine-proline (GP) RAN protein levels in leukocyte lysates from peripheral blood” value [1] was “Dose dependent reduction”.

B1: PKR-K296R: dominant negative K296R mutant form of protein kinase R, expressed from plasmid or AAV vector (protein, UniProt P19525 2-551, looked up, variant K296R)
Interferon-induced, …: AGDLSAGFFMEELNTYRQKQGVVLKYQELPNSGPPHDRRFTFQVIIDGREFPEGEGRSKKEAKNAAAKLAVEILNKEKKAVSPLLLTTTNSSEGLSMGNYIGLINRIAQKKRLTVNYEQCASGVHGPEGFHYKCKMGQKEYSIGTGSTKQEAKQLAAKLAYLQILSEETSVKSDYLSSGSFATTCESQSNSLVTSTLASESSSEGDFSADTSEINSNSDSLNSSSLLMNGLRNNQRKAKRSLAPRFDLPDMKETKYTVDKRFGMDFKEIELIGSGGFGQVFKAKHRIDGKTYVIRRVKYNNEKAEREVKALAKLDHVNIVHYNGCWDGFDYDPETSDDSLESSDYDPENSKNSSRSKTKCLFIQMEFCDKGTLEQWIEKRRGEKLDKVLALELFEQITKGVDYIHSKKLIHRDLKPSNIFLVDTKQVKIGDFGLVTSLKNDGKRTRSKGTLRYMSPEQISSQDYGKEVDLYALGLILAELLHVCDTAFETSKFFTDLRDGIISDIFDKKEKTLLQKLLSKKPEDRPNTSEILRTLTVWKKSPEKNERHTC
In the case of B1, the “steady state levels of eIF2α-P (p-eIF2α)” value (eIF2α) is reported as “decreases”, the “polyAla RAN protein levels” value (RAN translation; [2]) is reported as “decreased” and the “polyAla RAN protein levels” value (RAN translation; HEK293T, CAG expansion construct, listed as K296R PKR) is reported as “decreases”. The “ATG-initiated polyGln protein levels” value (RAN translation; HEK293T, CAG expansion with ATG in polyGln frame) was “not affected”, the “polyQAGR RAN protein levels” value (RAN translation; HEK293T, CAGG expansion construct) was “decreased” and the “polyLPAC RAN protein levels” value (RAN translation; HEK293T) was “decreased”. The “polyLPAC RAN protein levels” value (RAN translation; HEK293T, listed as K296R PKR) was “decreases”, the “polyGP RAN protein levels” value (RAN translation; HEK293T) was “decreased” and the “polyGP RAN protein levels” value (RAN translation; HEK293T, listed as K296R PKR) was “decreases”. The “DigiGait parameters (of 15) significantly different between C9 PKR-K296R and NT treatment groups” value (C9-500 BAC mice; 12 weeks) was 2, the “DigiGait parameters improved, of 15 that differed between untreated C9-500 and NT EGFP controls” value (C9-500 BAC mice; 12 weeks) was “nine of these parameters improved” and the “soluble GP levels in brain lysates (MSD)” value (C9-500 BAC mice; neonatal ICV AAV injection, 3 months, vs C9 EGFP controls) was “reduced”. The “GA RAN protein aggregates in the retrosplenial cortex (IHC)” value (C9-500 BAC mice; neonatal ICV AAV injection, vs C9 EGFP controls) was “decreased numbers of GA aggregates”, the “GA RAN protein aggregates in the retrosplenial cortex (IHC)” value (C9-500 BAC mice; neonatal ICV AAV injection, vs C9 EGFP controls, listed as PKR(K296R)) was “fewer GA RAN protein aggregates” and the “open field center time” value (C9-500 BAC mice) was “increased center time”. For the same molecule, the “open field center time” value (C9-500 BAC mice; listed as PKR(K296R)) was “reduced center time”.

B2: TARBP2: PKR inhibitor, transactivation response element RNA-binding protein, overexpressed by co-transfection (protein, UniProt Q15633 1-366, looked up)
RISC-loading complex subunit …: MSEEEQGSGTTTGCGLPSIEQMLAANPGKTPISLLQEYGTRIGKTPVYDLLKAEGQAHQPNFTFRVTVGDTSCTGQGPSKKAAKHKAAEVALKHLKGGSMLEPALEDSSSFSPLDSSLPEDIPVFTAAAAATPVPSVVLTRSPPMELQPPVSPQQSECNPVGALQELVVQKGWRLPEYTVTQESGPAHRKEFTMTCRVERFIEIGSGTSKKLAKRNAAAKMLLRVHTVPLDARDGNEVEPDDDHFSIGVGSRLDGLRNRGPGCTWDSLRNSVGEKILSLRSCSLGSLGALGPACCRVLSELSEEQAFHVSYLDIEELSLSGLCQCLVELSTQPATVCHGSATTREAARGEAARRALQYLKIMAGSK
For B2, the “steady state levels of eIF2α-P (p-eIF2α)” value (eIF2α) was “reduces; also recorded: decrease”, the “RAN polyAla levels expressed from CAG and CUG (CTG) expansions” value (RAN translation; HEK293T co-transfection, overexpression) was “decreases” and the “polyLPAC RAN protein levels” value (RAN translation; HEK293T) was “decreases”.
